Assays:
Assay in all cases: BLI (Octet), F on anti-HIS tip, 20 nM mAb
[1] = biological target: RSV F protein mutant pXCS874 (RSV A2, UniProt P03420 26-109)
[2] = biological target: RSV F protein mutant pXCS805 (RSV A2, UniProt P03420 26-109)
[3] = biological target: RSV F protein mutant pXCS839 (RSV A2, UniProt P03420 26-109)
[4] = biological target: RSV F protein mutant pXCS879 (RSV A2, UniProt P03420 26-109)
[5] = biological target: RSV F protein mutant pXCS806 (RSV A2, UniProt P03420 26-109)
[6] = biological target: RSV F protein mutant pXCS735 (RSV A2, UniProt P03420 26-109)
[7] = biological target: RSV F protein mutant pXCS749 (RSV A2, UniProt P03420 26-109)

B1: AM22 (antibody, V domains shown)
VH: QVQLVQSGAEVKKPGATVKVSCKISGHTLIKLSIHWVRQAPGKGLEWMGGYEGEVDEIFYAQKFQHRLTVIADTATDTVYMELGRLTSDDTAVYFCGTLGVTVTEAGLGIDDYWGQGTLVTVSS
VL: EIVLTQSPGTLSLSPGERATLSCRASQIVSRNHLAWYQQKPGQAPRLLIFGASSRATGIPVRFSGSGSGTDFTLTINGLAPEDFAVYYCLSSDSSIFTFGPGTKVDFK
In the case of B1, the “Response (nm shift)” value [1] is reported as 0.444 nm, the “Response (nm shift)” value [2] is reported as 0.173 nm and the “Response (nm shift)” value [3] is reported as 0.39 nm. The “Response (nm shift)” value [4] was 0.351 nm and the “Response (nm shift)” value [5] was 0.152 nm.

B2: MPE8 (antibody, V domains shown)
VH: EVQLVESGGGLVKPGGSLRLSCAASGFTFSSYSMNWVRQAPGKGLEWVSSISASSSYSDYADSAKGRFTISRDNAKTSLFLQMNSLRAEDTAIYFCARARATGYSSITPYFDIWGQGTLVTVSS
VL: QSVVTQTPSVSGAPGQRVTISCTGSSSNIGAGYDVHWYQQLPGTAPKLLIYDNNNRPSGVPDRFSASKSGTSASLAITGLQAEDEADYYCQSYDRNLSGVFGTGTKVTVL
notes: also called MPEG
For B2, the “Response (nm shift)” value [6] was 0.375 nm and the “Response (nm shift)” value [7] was 0.206 nm.

— US20230218738A1 (Pfizer, published 2023)
